From article PMC4537775 (Cell, 2015)
Like-named read-outs stand apart in the source and are kept apart here.

How the values were obtained:
SEC [1] = target: the molecule itself; test: SEC
SEC [2] = target: the molecule itself; test: SEC; remark: listed apart in the source

B1: full-length IstB (AAA+ ATPase subunit of the Geobacillus stearothermophilus IS21 family member IS5376) (natural protein, UniProt Q45619 1-251, looked up)
chain: MKERIHEYCHRLHLPVMAERWSAMAEYASTHNISYSEFLFRLLEAEIVEKQARSIQTLIKLSKLPYRKTIDTFDFTAQPSVDERRIRELLTLSFIDRKENILFLGPPGIGKTHLAISIGMEAIARGYKTYFITAHDLVNQLRRADQEGKLEKKLRVFVKPTVLIIDEMGYLKLDPNSAHYLFQVIARRYEHAPIILTSNKSFGEWGEIVGDSVLATAMLDRLLHHSIIFNLKGESYRLREKRLQEEKQKDQ
- stoichiometry N (SEC [1]): 2

B2: full-length IstB sensor-II mutant R237A (natural protein, Geobacillus stearothermophilus, UniProt Q45619 1-251, looked up)
chain: MKERIHEYCHRLHLPVMAERWSAMAEYASTHNISYSEFLFRLLEAEIVEKQARSIQTLIKLSKLPYRKTIDTFDFTAQPSVDERRIRELLTLSFIDRKENILFLGPPGIGKTHLAISIGMEAIARGYKTYFITAHDLVNQLRRADQEGKLEKKLRVFVKPTVLIIDEMGYLKLDPNSAHYLFQVIARRYEHAPIILTSNKSFGEWGEIVGDSVLATAMLDRLLHHSIIFNLKGESYALREKRLQEEKQKDQ
- stoichiometry N (SEC [2]): 2

B3: full-length IstB Walker-B mutant E167Q (natural protein, Geobacillus stearothermophilus, UniProt Q45619 1-251, looked up)
chain: MKERIHEYCHRLHLPVMAERWSAMAEYASTHNISYSEFLFRLLEAEIVEKQARSIQTLIKLSKLPYRKTIDTFDFTAQPSVDERRIRELLTLSFIDRKENILFLGPPGIGKTHLAISIGMEAIARGYKTYFITAHDLVNQLRRADQEGKLEKKLRVFVKPTVLIIDQMGYLKLDPNSAHYLFQVIARRYEHAPIILTSNKSFGEWGEIVGDSVLATAMLDRLLHHSIIFNLKGESYRLREKRLQEEKQKDQ
- stoichiometry N (SEC [2]): 2

B4: full-length IstB Walker-A mutant K111A (natural protein, Geobacillus stearothermophilus, UniProt Q45619 1-251, looked up)
chain: MKERIHEYCHRLHLPVMAERWSAMAEYASTHNISYSEFLFRLLEAEIVEKQARSIQTLIKLSKLPYRKTIDTFDFTAQPSVDERRIRELLTLSFIDRKENILFLGPPGIGATHLAISIGMEAIARGYKTYFITAHDLVNQLRRADQEGKLEKKLRVFVKPTVLIIDEMGYLKLDPNSAHYLFQVIARRYEHAPIILTSNKSFGEWGEIVGDSVLATAMLDRLLHHSIIFNLKGESYRLREKRLQEEKQKDQ
- stoichiometry N (SEC [2]): 2

B5: full-length IstB arginine finger mutant R221A (natural protein, Geobacillus stearothermophilus, UniProt Q45619 1-251, looked up)
chain: MKERIHEYCHRLHLPVMAERWSAMAEYASTHNISYSEFLFRLLEAEIVEKQARSIQTLIKLSKLPYRKTIDTFDFTAQPSVDERRIRELLTLSFIDRKENILFLGPPGIGKTHLAISIGMEAIARGYKTYFITAHDLVNQLRRADQEGKLEKKLRVFVKPTVLIIDEMGYLKLDPNSAHYLFQVIARRYEHAPIILTSNKSFGEWGEIVGDSVLATAMLDALLHHSIIFNLKGESYRLREKRLQEEKQKDQ
- stoichiometry N (SEC [2]): 2
